According to the supplement of paper PMC11865577:

Assays:
Test in all cases: pull-down binding Z-score (relative to library population); higher = stronger binding
[1] = test system: TO-3-N3-2 (biotin conjugate); settings: RNA library: Library-2
Procedure, shortened: (§1)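 Binding is given as a Z-score against the library mean and standard deviation, calculated after removing the beads-only signal and averaging barcoded replicate probes without their highest and lowest values. Cy5- or Cy3-end-labelled RNA library (1 μg) was heat-folded in phosphate/NaCl/KCl buffer and incubated 60 min at 25 °C with streptavidin beads bearing 100 pmol of biotin-conjugated small molecule. After three washes, RNA eluted in hot SDS was hybridised to a DNA barcode microarray for 20 h at 55.5 °C.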

[2] = test system: TO-N3-2 (biotin conjugate); settings: RNA library: Library-2
Procedure, shortened: as §1

[3] = test system: TO-3-N3 (biotin conjugate); settings: RNA library: Library-2
Procedure, shortened: as §1

TO-N3 (biotin conjugate) = settings: RNA library: Library-2
Procedure, shortened: as §1

[4] = test system: G-clamp-N3 (biotin conjugate); settings: RNA library: Library-1 (pre-miRNA loops + repeats)
Procedure, shortened: as §1

Row | Sequence | pull-down binding Z-score [1] | pull-down binding Z-score [2] | pull-down binding Z-score [3] | pull-down binding Z-score (TO-N3 (biotin conjugate)) | pull-down binding Z-score [4]
1 | CCCGAGGCCCUUCAUGCUGCCCAGCUCGGG [hsa-mir-486-1] | 0.923 | 1.19 | 0.473 | 0.727 | 0.819
2 | CCCGGAUACCUCAGAAAUUCGG [hsa-mir-760] | -0.461 | 0.267 | -0.07 | -0.0213 | -0.822
3 | CCCGGCCGGCAGCCCCCGGCCUUAAAGCGCGGG [hsa-mir-4741] | 0.194 | 2.16 | -0.112 | 0.228 | 0.653
4 | CCCGUAGGACACCGAGGCUUAUGAAUAGGA [hsa-mir-6081] | 0.141 | 0.62 | -0.16 | 0.345 | -0.941
5 | CCCUAGGACUUACUUGUGCAGGG [hsa-mir-4253] | -0.403 | -0.69 | -0.256 | -0.303 | -0.421
6 | CCCUCAUAUGGCAGUUGGCGAGGGCCCAGUGAG [hsa-mir-6769a] | 0.582 | 1.53 | 0.974 | 1.33 | 2.45
7 | CCCUGCACUCAGUUUGCACAGGG [hsa-mir-4511] | -0.184 | 0.0492 | -0.159 | -0.122 | 0.204
8 | CCCUGCCCAGUGCAGGAG [hsa-mir-6069] | -0.478 | -0.914 | -0.42 | -0.817 | 0.386
9 | CCCUGGGGAGCUGCUGCAGGCAGCAGGUGGGCGGGACGCCAGCAGGCUGUCUAGCUGUUCCCAUGAUGG [hsa-mir-6843] | 0.49 | 2.24 | 0.919 | 1.81 | 2.14
10 | CCCUGGUCAGACUCUCCGGGG [hsa-mir-4675] | -0.287 | -0.561 | -0.139 | -0.368 | -0.63
11 | CCCUUGUCUUCCCAGAG [hsa-mir-4739] | -0.41 | -0.0951 | -0.28 | -0.358 | -1.22
12 | CCGACUCGGGCUCUGGAGCAGUC [hsa-mir-152] | 0.274 | 0.692 | 0.836 | 1.09 | 0.748
13 | CCGACUCUGAGUAUGAUAGAAGUC [hsa-mir-148a] | 0.613 | 2.33 | 0.905 | 1.48 | -1.56
14 | CCGAGUGAUCUCGGU [hsa-mir-8071-1_8071-2] | -0.324 | -0.0845 | -0.581 | -0.685 | -1.48
15 | CCGCCCUCGUGUCUGUGGCGGUGG [hsa-mir-663a] | -0.231 | 0.679 | 0.171 | 0.334 | 0.239
16 | CCGCCUUUGUGCUGUCCUUGGAGGGAGG [hsa-mir-1910] | -0.0292 | 0.495 | 0.209 | 0.226 | 1.1
17 | CCGCUAGUGGAAGAAGAUGGCGG [hsa-mir-6125] | 0.669 | 1.59 | 0.322 | 0.547 | 1.5
18 | CCGGCCCGUUAGUUGCCCGGGCCCG [hsa-mir-3181] | -0.397 | 0.914 | -0.57 | -0.422 | -0.29

Row | Sequence | pull-down binding Z-score [1] | pull-down binding Z-score [2] | pull-down binding Z-score [3] | pull-down binding Z-score (TO-N3 (biotin conjugate)) | pull-down binding Z-score [4]
19 | CCGGGCGCUGCUCUGACCCCUCGU [hsa-mir-187] | 0.116 | 1.39 | 0.166 | 0.875 | 0.00395
20 | CCGGGGCAGGAGACCCCGCG [hsa-mir-1470] | -0.34 | 0.265 | -0.389 | -0.351 | -0.305
21 | CCGGGUGCCCACAAGACUGUG [hsa-mir-3138] | 0.469 | 2.06 | 0.49 | 1.01 | -0.253
22 | CCGUAUAUAUAUAUAUAUAUAUAUAGAUAUCUCCAUAUAUAUGG [hsa-mir-620] | -0.53 | -0.872 | -0.865 | -1.16 | 1.15
23 | CCGUGCCCUGGCCACUCAUUCGG [hsa-mir-6741] | 0.133 | 1.1 | 0.294 | 0.45 | -0.0927
24 | CCGUUUAAAAAGGCAUCUCCAAG [hsa-mir-608] | 0.433 | 0.0602 | 0.0622 | 0.0887 | -1.45
25 | CCUAGAGUCCAUUCUUUACUCUAGG [hsa-mir-4779] | -0.586 | -1.28 | -0.699 | -1.18 | -0.507
26 | CCUAGUGGCUAGCCCUGGGUCUAGCAGCCUAUGGCAGUGUCUGGUAAACACUGGUGGAGUCCUGGG [hsa-mir-6745] | -0.307 | 1.22 | -0.189 | 0.336 | 0.335
27 | CCUCAAUCACUUGCCAGAGAGAUUGG [hsa-mir-1200] | -0.188 | -0.136 | 0.0255 | -0.196 | -1.09
28 | CCUCACCUGCUGAGAG [hsa-mir-3670-3_3670-2_3670-1_3670-4] | -0.133 | 0.19 | -0.258 | -0.143 | 0.409
29 | CCUCCCCCAGUGCCAGG [hsa-mir-3196] | -0.331 | 0.352 | -0.253 | -0.106 | -0.591
30 | CCUCCCUAGGGGAUCCCAGGUAGG [hsa-mir-4688] | -0.168 | -0.0612 | 0.295 | 0.0963 | -0.606
31 | CCUCGAAGCUGCCUUUAGAAAUGAGG [hsa-mir-4496] | -0.192 | 0.142 | -0.0169 | 0.176 | -0.107
32 | CCUCUCGGGAACUACAAGUCCCAGGGGG [hsa-mir-2861] | -0.409 | -0.455 | -0.694 | -0.794 | 0.879
33 | CCUCUGUCCUCUGUCCUCUACCUAUAGAGG [hsa-mir-641] | -0.229 | 0.141 | 0.224 | 0.118 | 0.349
34 | CCUGACAGACAGCCUGAUAGACAGG [hsa-mir-4661] | 0.168 | 0.908 | 2 | 1.96 | -0.998
35 | CCUGAUGAAUCUGAGGCCAGG [hsa-mir-577] | 0.118 | 0.326 | -0.271 | -0.18 | 1.14
36 | CCUGCAGCCCCCAGGUGGGGGG [hsa-mir-4271] | -0.105 | 0.398 | 0.75 | 0.659 | 0.67
